Data: US20220403001A1, “PDE5 DERIVED REGULATORY CONSTRUCTS AND METHODS OF USE IN IMMUNOTHERAPY” (Obsidian Therapeutics, Inc., priority 2018, published 2022)

Key:
hPDE5 mutants [1] = molecular target: hPDE5 mutants (Homo sapiens, UniProt O76074); test: GFP FACS analysis of hPDE5 mutant library clones in NIH3T3 cell pools; conditions: for Stabilization ratio: GFP intensity 10 μM vardenafil vs DMSO; for Stabilization ratio / Destabilizing mutation co-efficient / MFI 10 μM VDF / MFI DMSO / GFP FACS analysis (MFI): experiment 1; for Destabilizing mutation co-efficient: GFP intensity mutant vs PDE5 wildtype construct in absence of ligand; for MFI 10 μM VDF / MFI DMSO: GFP, NIH3T3 cell pools; for MFI 10 μM VDF: 10 μM vardenafil 24 hr; for MFI DMSO: no ligand (DMSO)
Protocol: (§1) These constructs were packaged into lentivirus, transduced into NIH3T3 cells and select stable cell pools were derived as described below. […] Lentiviral stocks were used for transduction of NIH3T3 cells and subsequent cell pool selection. The day before transduction, NIH3T3 cells (1.8×10^6) were seeded in a T-25 flask and allowed to reach 60-70% confluency (˜1 day). The growth medium in the T-25 flask was then replaced with 1 mL virus (quickly thawed in a 37° C. water bath) and 5 μg/mL polybrene. […] Transduction medium was removed the following day and replaced with 5 mL fresh medium. At 48 hr after transduction, the medium was replaced with media containing 1 μg/mL puromycin. This puromycin medium was replaced every 3-4 days until cell pools were established (˜2 weeks).
(§2) The mean fluorescence intensity (MFI) of GFP at 100 μM concentration treatment was set as 100% hPDE5 stabilization effect (HPE), while DMSO treatment was set as 0% effect (ZPE) of hPDE5 stabilization. The effect of the compound on hPDE5 stabilization was calculated based on the following formula: % PDE5 stabilization effect=(MFI-ZPE)/(HPE-ZPE)×100.
(§3) Plots of the % effect versus concentration were generated with Graphpad Prism 5 and EC50 values were calculated using a four-parameter nonlinear regression model.
(§4) Select PDE5 clones from both experiment 1 and experiment 2 were directly compared. […] The stabilization ratio was calculated as the fold change in GFP intensity in ligand treated samples compared to treatment with DMSO (i.e. in the absence of ligand) with the same construct.

hPDE5 mutants [2] = test: as above; conditions: experiment 1
Protocol: as §1, §2, §3, §4

LibC000002: hPDE5 (Amino acid 535-860 of WT, I700F, E796G), DD generated by random mutagenesis
Stabilization ratio (hPDE5 mutants [1]): 3.2 | Destabilizing mutation co-efficient (hPDE5 mutants [1]): 0.05 | MFI 10 μM VDF (hPDE5 mutants [1]): 981 | MFI DMSO (hPDE5 mutants [1]): 309

LibC000003: hPDE5 (Amino acid 535-860 of WT, D724G, K848N), DD generated by random mutagenesis
Stabilization ratio (hPDE5 mutants [1]): 2.9 | Destabilizing mutation co-efficient (hPDE5 mutants [1]): 0.11 | MFI 10 μM VDF (hPDE5 mutants [1]): 1870 | MFI DMSO (hPDE5 mutants [1]): 656

LibC000005: hPDE5 (Amino acid 535-860 of WT, I556S, E796D), DD generated by random mutagenesis
MFI 10 μM VDF (hPDE5 mutants [1]): 2081 | MFI DMSO (hPDE5 mutants [1]): 271 | GFP FACS analysis (MFI) (hPDE5 mutants [1]; SDF 3.704 μM): 518 | GFP FACS analysis (MFI) (hPDE5 mutants [1]; SDF 11.111 μM): 577 | GFP FACS analysis (MFI) (hPDE5 mutants [1]; SDF 33.333 μM): 734 | GFP FACS analysis (MFI) (hPDE5 mutants [1]; SDF 100 μM): 1136 | GFP FACS analysis (MFI) (hPDE5 mutants [1]; TDF 3.704 μM): 453 | GFP FACS analysis (MFI) (hPDE5 mutants [1]; TDF 11.111 μM): 551 | GFP FACS analysis (MFI) (hPDE5 mutants [1]; TDF 33.333 μM): 711 | GFP FACS analysis (MFI) (hPDE5 mutants [1]; TDF 100 μM): 814 | GFP FACS analysis (MFI) (hPDE5 mutants [1]; VDF 1.235 μM): 1044 | GFP FACS analysis (MFI) (hPDE5 mutants [1]; VDF 3.704 μM): 1968 | GFP FACS analysis (MFI) (hPDE5 mutants [1]; VDF 11.111 μM): 3066 | GFP FACS analysis (MFI) (hPDE5 mutants [1]; VDF 33.333 μM): 3892 | GFP FACS analysis (MFI) (hPDE5 mutants [1]; VDF 100 μM): 4240 | Fluorescence intensity Sildenafil (hPDE5 mutants [1]; median GFP fluorescence by FACS, 10 μM Sildenafil, direct comparison of clones): 1136 | Fluorescence intensity Tadalafil (hPDE5 mutants [1]; median GFP fluorescence by FACS, 10 μM Tadalafil, direct comparison of clones): 814 | Fluorescence intensity Vardenafil (hPDE5 mutants [1]; median GFP fluorescence by FACS, 10 μM Vardenafil, direct comparison of clones): 4240 | Fluorescence intensity DMSO (hPDE5 mutants [1]; median GFP fluorescence by FACS, vehicle DMSO (no ligand), direct comparison of clones): 359 | GFP FACS analysis (MFI) (hPDE5 mutants [2]; DMSO (no ligand), SDF series): 335 | GFP FACS analysis (MFI) (hPDE5 mutants [2]; DMSO (no ligand), TDF series): 366 | GFP FACS analysis (MFI) (hPDE5 mutants [2]; DMSO (no ligand), VDF series): 376 | GFP FACS analysis (MFI) (hPDE5 mutants [2]; SDF 1.235 μM): 479 | Percent stabilization effect (hPDE5 mutants [2]; SDF 1.235 μM): 18.0% | Percent stabilization effect (hPDE5 mutants [2]; SDF 3.704 μM): 22.8% | Percent stabilization effect (hPDE5 mutants [2]; SDF 11.111 μM): 30.2% | Percent stabilization effect (hPDE5 mutants [2]; SDF 33.333 μM): 49.8% | Percent stabilization effect (hPDE5 mutants [2]; SDF 100 μM (set as 100%)): 100.0% | GFP FACS analysis (MFI) (hPDE5 mutants [2]; TDF 1.235 μM): 418 | Percent stabilization effect (hPDE5 mutants [2]; TDF 1.235 μM): 11.6% | Percent stabilization effect (hPDE5 mutants [2]; TDF 3.704 μM): 19.4% | Percent stabilization effect (hPDE5 mutants [2]; TDF 11.111 μM): 41.3% | Percent stabilization effect (hPDE5 mutants [2]; TDF 33.333 μM): 77.0% | Percent stabilization effect (hPDE5 mutants [2]; TDF 100 μM (set as 100%)): 100.0% | Percent stabilization effect (hPDE5 mutants [2]; VDF 1.235 μM): 17.3% | Percent stabilization effect (hPDE5 mutants [2]; VDF 3.704 μM): 41.2% | Percent stabilization effect (hPDE5 mutants [2]; VDF 11.111 μM): 69.6% | Percent stabilization effect (hPDE5 mutants [2]; VDF 33.333 μM): 91.0% | Percent stabilization effect (hPDE5 mutants [2]; VDF 100 μM (set as 100%)): 100.0%

LibC000007: hPDE5 (Amino acid 535-860 of WT, H613L, D724Y, F755Y), DD generated by random mutagenesis
Stabilization ratio (hPDE5 mutants [1]): 1.0 | Destabilizing mutation co-efficient (hPDE5 mutants [1]): 0.04 | MFI 10 μM VDF (hPDE5 mutants [1]): 234 | MFI DMSO (hPDE5 mutants [1]): 234

LibC000010: hPDE5 (Amino acid 535-860 of WT, R658H), DD generated by random mutagenesis
Stabilization ratio (hPDE5 mutants [1]): 2.1 | Destabilizing mutation co-efficient (hPDE5 mutants [1]): 1.17 | MFI 10 μM VDF (hPDE5 mutants [1]): 13940 | MFI DMSO (hPDE5 mutants [1]): 6713

LibC000011: hPDE5 (Amino acid 535-860 of WT, S562G, L727P, R847T), DD generated by random mutagenesis
Stabilization ratio (hPDE5 mutants [1]): 1.2 | Destabilizing mutation co-efficient (hPDE5 mutants [1]): 0.01 | MFI 10 μM VDF (hPDE5 mutants [1]): 67 | MFI DMSO (hPDE5 mutants [1]): 57

LibC000013: hPDE5 (Amino acid 535-860 of WT, L781P), DD generated by random mutagenesis
Stabilization ratio (hPDE5 mutants [1]): 1.5 | Destabilizing mutation co-efficient (hPDE5 mutants [1]): 0.09 | MFI 10 μM VDF (hPDE5 mutants [1]): 723 | MFI DMSO (hPDE5 mutants [1]): 498 | GFP FACS analysis (MFI) (hPDE5 mutants [1]; SDF 3.704 μM): 3467 | GFP FACS analysis (MFI) (hPDE5 mutants [1]; SDF 11.111 μM): 5539 | GFP FACS analysis (MFI) (hPDE5 mutants [1]; SDF 33.333 μM): 7404 | GFP FACS analysis (MFI) (hPDE5 mutants [1]; SDF 100 μM): 8260 | GFP FACS analysis (MFI) (hPDE5 mutants [1]; TDF 3.704 μM): 6275 | GFP FACS analysis (MFI) (hPDE5 mutants [1]; TDF 11.111 μM): 8085 | GFP FACS analysis (MFI) (hPDE5 mutants [1]; TDF 33.333 μM): 8353 | GFP FACS analysis (MFI) (hPDE5 mutants [1]; TDF 100 μM): 7614 | GFP FACS analysis (MFI) (hPDE5 mutants [1]; VDF 1.235 μM): 6773 | GFP FACS analysis (MFI) (hPDE5 mutants [1]; VDF 3.704 μM): 7330 | GFP FACS analysis (MFI) (hPDE5 mutants [1]; VDF 11.111 μM): 7393 | GFP FACS analysis (MFI) (hPDE5 mutants [1]; VDF 33.333 μM): 7308 | GFP FACS analysis (MFI) (hPDE5 mutants [1]; VDF 100 μM): 7207 | GFP FACS analysis (MFI) (hPDE5 mutants [2]; DMSO (no ligand), SDF series): 943 | GFP FACS analysis (MFI) (hPDE5 mutants [2]; DMSO (no ligand), TDF series): 847 | GFP FACS analysis (MFI) (hPDE5 mutants [2]; DMSO (no ligand), VDF series): 854 | GFP FACS analysis (MFI) (hPDE5 mutants [2]; SDF 1.235 μM): 2076 | GFP FACS analysis (MFI) (hPDE5 mutants [2]; TDF 1.235 μM): 3688

LibC000014: hPDE5 (Amino acid 535-860 of WT, A767E), DD generated by random mutagenesis
Stabilization ratio (hPDE5 mutants [1]): 2.8 | Destabilizing mutation co-efficient (hPDE5 mutants [1]): 0.44 | MFI 10 μM VDF (hPDE5 mutants [1]): 6998 | MFI DMSO (hPDE5 mutants [1]): 2500
